Results: patent publication US20140072613A1, “Compositions and Methods for Treating Cutaneous Scarring” (priority 2012, published 2014)

Tests used:
MAPKAP-K2 (h) = MAPKAP-K2 (h) (Homo sapiens, UniProt P49137); assay: Millipore radiometric kinase assay (IC50 Profiler Express / kinase profiling); assay type: biochemical; details: MAPKAP-K2(h); 100 μM
Description: (§1) Specifically, in these assays, a positively charged substrate is phosphorylated with a radiolabeled phosphate group from an ATP if the kinase is not inhibited by an inhibitor peptide. The positively charged substrate then is attracted to a negatively charged filter membrane, quantified with a scintillation counter, and compared to a 100% activity control.

MAPKAP-K3 (h) = MAPKAP-K3 (h) (Homo sapiens, UniProt Q16644); assay: as above; assay type: biochemical; details: MAPKAP-K3(h); 100 μM
Description: as §1

TrkB (h) = TrkB (h) (Homo sapiens, UniProt Q16620); assay: as above; assay type: biochemical; details: TrkB(h); 100 μM
Description: as §1

DMPK (h) = target: T1, DMPK (h) (Homo sapiens, UniProt Q09013); assay: Millipore radiometric kinase assay (IC50 Profiler Express); assay type: biochemical; details: DMPK(h); 100 μM
T1 sequence (Q09013 1-629): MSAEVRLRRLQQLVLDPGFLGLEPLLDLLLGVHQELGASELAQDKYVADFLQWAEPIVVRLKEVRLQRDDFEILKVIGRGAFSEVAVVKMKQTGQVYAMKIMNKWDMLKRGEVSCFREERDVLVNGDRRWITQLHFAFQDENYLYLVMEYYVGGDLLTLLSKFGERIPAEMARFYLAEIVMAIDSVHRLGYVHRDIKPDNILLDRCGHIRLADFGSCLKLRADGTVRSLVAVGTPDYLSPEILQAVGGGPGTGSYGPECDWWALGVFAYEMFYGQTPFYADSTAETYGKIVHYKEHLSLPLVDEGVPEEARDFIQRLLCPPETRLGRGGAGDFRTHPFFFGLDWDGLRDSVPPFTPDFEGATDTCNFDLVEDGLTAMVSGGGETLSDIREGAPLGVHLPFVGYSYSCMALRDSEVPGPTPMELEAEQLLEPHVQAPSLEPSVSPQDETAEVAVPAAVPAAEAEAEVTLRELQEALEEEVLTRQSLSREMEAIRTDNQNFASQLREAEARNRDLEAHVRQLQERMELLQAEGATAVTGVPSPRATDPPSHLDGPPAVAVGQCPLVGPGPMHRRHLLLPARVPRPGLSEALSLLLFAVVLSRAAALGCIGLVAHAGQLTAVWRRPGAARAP
Description: as §1

DRAK1 (h) = target: T2, DRAK1 (h) (Homo sapiens, UniProt Q9UEE5); assay: as above; assay type: biochemical; details: DRAK1(h); 100 μM
T2 sequence (Q9UEE5 1-414): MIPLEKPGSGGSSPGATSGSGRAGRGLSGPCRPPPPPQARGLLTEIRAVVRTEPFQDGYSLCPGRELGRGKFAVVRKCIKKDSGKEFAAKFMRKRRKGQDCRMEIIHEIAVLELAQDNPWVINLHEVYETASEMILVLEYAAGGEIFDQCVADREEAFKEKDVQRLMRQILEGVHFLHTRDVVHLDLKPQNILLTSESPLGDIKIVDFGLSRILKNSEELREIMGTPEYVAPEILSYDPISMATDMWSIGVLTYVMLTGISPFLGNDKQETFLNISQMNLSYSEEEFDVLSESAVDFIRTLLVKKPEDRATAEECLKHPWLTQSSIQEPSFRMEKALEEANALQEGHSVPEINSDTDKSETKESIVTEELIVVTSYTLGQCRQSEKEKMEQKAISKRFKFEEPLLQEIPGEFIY
Description: as §1

EGFR (L861Q) (h) = EGFR (L861Q) (h) (Homo sapiens, UniProt P00533, L861Q); assay: as above; assay type: biochemical; details: EGFR(L861Q)(h); 100 μM
Description: as §1

LOK (h) = LOK (h) (Homo sapiens, UniProt O94804); assay: as above; assay type: biochemical; details: LOK(h); 100 μM
Description: as §1

266 human kinases [1] = target: 266 human kinases (Homo sapiens, UniProt O15264); assay: biochemical; assay type: biochemical; details: SAPK4(h); 100 μM
How it was run: (§2)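 Inhibition was judged from reduced transfer of labelled phosphate from ATP to a positively charged substrate, which was captured on a negatively charged membrane and quantified by scintillation counting against a 100% activity control.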

266 human kinases [2] = target: 266 human kinases (Homo sapiens, UniProt P07333); assay: biochemical; assay type: biochemical; details: Fms(h); 100 μM
How it was run: as §2

266 human kinases [3] = target: T3, 266 human kinases (Homo sapiens, UniProt Q96BR1); assay: biochemical; assay type: biochemical; details: SGK3(h); 100 μM
T3 sequence (Q96BR1 1-496): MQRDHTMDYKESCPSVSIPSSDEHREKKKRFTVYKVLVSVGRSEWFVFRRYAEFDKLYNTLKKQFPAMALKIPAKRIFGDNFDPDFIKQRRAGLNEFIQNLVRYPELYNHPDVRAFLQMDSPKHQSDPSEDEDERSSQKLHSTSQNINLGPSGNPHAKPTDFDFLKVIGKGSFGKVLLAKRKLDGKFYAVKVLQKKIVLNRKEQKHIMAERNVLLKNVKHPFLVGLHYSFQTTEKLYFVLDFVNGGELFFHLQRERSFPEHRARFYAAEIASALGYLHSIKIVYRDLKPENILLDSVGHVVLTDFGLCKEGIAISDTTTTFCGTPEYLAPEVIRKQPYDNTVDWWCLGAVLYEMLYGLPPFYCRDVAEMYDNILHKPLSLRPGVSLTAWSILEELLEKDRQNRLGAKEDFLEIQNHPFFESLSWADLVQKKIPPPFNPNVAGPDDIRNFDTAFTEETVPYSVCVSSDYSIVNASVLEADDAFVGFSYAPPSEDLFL
How it was run: as §2

EphA2 (h) = EphA2 (h) (Homo sapiens, UniProt P29317); assay: biochemical; details: EphA2(h); 100 μM
Description: as §1

Fgr (h) = Fgr (h) (Homo sapiens, UniProt P09769); assay: biochemical; details: Fgr(h); 100 μM
Description: as §1

Yes (h) = Yes (h) (Homo sapiens, UniProt P07947); assay: biochemical; details: Yes(h); 100 μM
Description: as §1

MAPKAP-K3 (h), sequence (Q16644 whole entry): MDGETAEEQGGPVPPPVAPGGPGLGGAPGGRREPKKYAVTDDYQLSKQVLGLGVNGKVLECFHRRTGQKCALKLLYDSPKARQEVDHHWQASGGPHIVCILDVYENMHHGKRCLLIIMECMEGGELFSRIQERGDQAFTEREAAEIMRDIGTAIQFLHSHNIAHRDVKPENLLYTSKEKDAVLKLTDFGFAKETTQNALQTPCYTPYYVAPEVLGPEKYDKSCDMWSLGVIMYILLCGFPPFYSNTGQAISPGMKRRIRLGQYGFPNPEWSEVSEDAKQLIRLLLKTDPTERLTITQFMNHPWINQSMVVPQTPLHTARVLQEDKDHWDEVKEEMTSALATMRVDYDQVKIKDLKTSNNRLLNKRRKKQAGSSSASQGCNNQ
MAPKAP-K2 (h), sequence (P49137 whole entry): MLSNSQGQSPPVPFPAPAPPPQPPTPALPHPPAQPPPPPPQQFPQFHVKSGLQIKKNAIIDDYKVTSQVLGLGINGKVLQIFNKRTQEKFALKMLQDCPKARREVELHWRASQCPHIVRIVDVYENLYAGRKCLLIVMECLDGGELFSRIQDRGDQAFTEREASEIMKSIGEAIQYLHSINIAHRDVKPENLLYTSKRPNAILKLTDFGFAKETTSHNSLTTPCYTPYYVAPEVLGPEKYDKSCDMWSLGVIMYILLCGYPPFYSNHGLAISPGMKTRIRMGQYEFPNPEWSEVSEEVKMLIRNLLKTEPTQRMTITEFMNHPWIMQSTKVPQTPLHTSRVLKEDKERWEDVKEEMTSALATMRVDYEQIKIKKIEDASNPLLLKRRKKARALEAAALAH
LOK (h), sequence (O94804 whole entry): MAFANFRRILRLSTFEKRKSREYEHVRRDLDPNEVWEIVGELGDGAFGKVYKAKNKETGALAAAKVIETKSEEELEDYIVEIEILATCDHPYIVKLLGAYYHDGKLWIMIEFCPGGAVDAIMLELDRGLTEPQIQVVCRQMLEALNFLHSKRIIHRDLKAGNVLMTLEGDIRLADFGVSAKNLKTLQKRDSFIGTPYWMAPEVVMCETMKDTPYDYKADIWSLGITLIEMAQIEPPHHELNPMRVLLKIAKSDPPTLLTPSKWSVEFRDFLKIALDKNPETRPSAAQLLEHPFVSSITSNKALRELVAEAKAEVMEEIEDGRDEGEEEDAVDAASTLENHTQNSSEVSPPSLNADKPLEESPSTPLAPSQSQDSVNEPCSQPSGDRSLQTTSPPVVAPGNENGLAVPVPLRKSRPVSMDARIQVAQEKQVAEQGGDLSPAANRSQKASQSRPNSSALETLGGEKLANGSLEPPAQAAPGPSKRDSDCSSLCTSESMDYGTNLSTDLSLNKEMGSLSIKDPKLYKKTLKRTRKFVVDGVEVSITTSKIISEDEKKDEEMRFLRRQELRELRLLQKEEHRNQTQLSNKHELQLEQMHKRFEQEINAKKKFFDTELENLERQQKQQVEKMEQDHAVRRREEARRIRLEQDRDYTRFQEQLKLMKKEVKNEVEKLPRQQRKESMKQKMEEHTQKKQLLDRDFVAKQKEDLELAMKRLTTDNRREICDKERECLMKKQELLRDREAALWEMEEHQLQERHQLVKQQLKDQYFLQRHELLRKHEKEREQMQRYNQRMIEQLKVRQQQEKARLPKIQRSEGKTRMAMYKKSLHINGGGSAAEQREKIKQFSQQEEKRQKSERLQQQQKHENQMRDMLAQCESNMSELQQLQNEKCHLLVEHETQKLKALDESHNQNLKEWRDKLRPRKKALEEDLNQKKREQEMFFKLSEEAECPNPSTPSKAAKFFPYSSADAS
Yes (h), sequence (P07947 whole entry): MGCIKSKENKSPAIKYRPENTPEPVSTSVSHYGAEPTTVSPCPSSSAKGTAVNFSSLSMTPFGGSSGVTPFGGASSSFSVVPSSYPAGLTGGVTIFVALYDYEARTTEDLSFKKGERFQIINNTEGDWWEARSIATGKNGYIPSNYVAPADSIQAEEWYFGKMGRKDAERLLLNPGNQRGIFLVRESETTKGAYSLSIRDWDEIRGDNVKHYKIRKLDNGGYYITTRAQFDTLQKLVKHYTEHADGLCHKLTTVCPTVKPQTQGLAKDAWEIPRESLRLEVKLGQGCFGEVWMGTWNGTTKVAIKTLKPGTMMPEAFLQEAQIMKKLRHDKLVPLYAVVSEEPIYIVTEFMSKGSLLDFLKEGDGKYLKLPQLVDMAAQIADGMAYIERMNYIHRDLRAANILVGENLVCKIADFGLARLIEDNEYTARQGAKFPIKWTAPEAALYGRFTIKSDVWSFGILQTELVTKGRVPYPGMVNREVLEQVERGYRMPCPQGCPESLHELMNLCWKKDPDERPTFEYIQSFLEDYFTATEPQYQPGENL
266 human kinases (Homo sapiens, UniProt O15264), sequence (O15264 whole entry): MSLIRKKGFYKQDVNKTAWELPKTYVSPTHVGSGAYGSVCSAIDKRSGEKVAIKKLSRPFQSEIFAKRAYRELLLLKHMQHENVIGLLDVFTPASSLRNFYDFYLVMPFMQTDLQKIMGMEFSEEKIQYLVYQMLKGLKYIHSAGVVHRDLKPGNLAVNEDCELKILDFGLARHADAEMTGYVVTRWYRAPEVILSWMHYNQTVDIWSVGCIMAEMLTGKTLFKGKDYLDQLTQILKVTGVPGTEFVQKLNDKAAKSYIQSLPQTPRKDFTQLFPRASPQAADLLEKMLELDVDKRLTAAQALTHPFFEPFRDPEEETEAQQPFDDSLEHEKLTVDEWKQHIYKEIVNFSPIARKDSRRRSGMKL

Row | Sequence | % activity (MAPKAP-K2 (h)) | % activity (MAPKAP-K3 (h)) | % activity (TrkB (h)) | % activity (DMPK (h)) | % activity (DRAK1 (h)) | % activity (EGFR (L861Q) (h)) | % activity (LOK (h)) | % activity (266 human kinases [1]) | % activity (266 human kinases [2]) | % activity (266 human kinases [3]) | % activity (EphA2 (h)) | % activity (Fgr (h)) | % activity (Yes (h))
1 | HRRIKAWLKKIKALARQLGVAA (mammal) [MMI-0500] | 9% | 9% | 12% | 12% | 8% | 15% | 7% | 48% | 14% | −3% | – | – | –
2 | YARAAARQARAKALNRQLGVA (mammal) [MMI-0200] | 35% | 39% | 7% | 66% | 34% | 74% | 67% | – | 92% | 58% | 95% | 71% | 93%
